# Article PMC4580983 (Nature Communications, 2015)
# How the values were obtained:
# [1] = target: the molecule itself; assay: crystal structure; hPF4 (7 mg/ml) with six-fold molar excess fondaparinux in PBS and 0.3 M NaCl; hanging drop, 16 °C, 2% PEG4000, 17% MPD, 0.1 M sodium acetate pH 5.6; 2.50 Å
# PF4 tetramer (human PF4) = target: T1, PF4 tetramer (human PF4) (human, UniProt P02776); assay: crystal structure; KKO-Fab (5 mg/ml) mixed with hPF4, on ice overnight; hanging drop, 16 °C, 7% PEG6000, 0.1 M Tris-HCl pH 7.8; 4.10 Å; conditions: both partners purified
# T1 construct: platelet factor 4 (PF4), human, wild type, same construct as m1, as the tetramer; Same protein as m1; also called hPF4 tetramer
# [2] = target: T2, wild-type human platelet factor 4 (hPF4) (human, UniProt P02776); assay: ELISA; Immulon 4 HBX plates coated overnight with PF4 or PF4 mutant at 5 ug/ml, blocked with 1% BSA in PBS; antibody in solution; A405; conditions: both partners purified
# T2 construct: platelet factor 4 (PF4), human, wild type, expressed from plasmid pMT/BiP/V5-His; Probably the mature 70-residue PF4 behind the BiP signal of the vector; also called wtPF4; rPF4
binder,measurement,setting,value
"wild-type human platelet factor 4 (hPF4) (natural protein, platelet factor 4 (PF4), human, wild type, expressed from plasmid pMT/BiP/V5-His; Probably the mature 70-residue PF4 behind the BiP signal of the vector; also called wtPF4; rPF4) EAEEDGDLQCLCVKTTSQVRPRHITSLEVIKAGPHCPTAQLIATLKNGRKICLDLQAPLYKKIIKKLLES",stoichiometry N,[1],4
"KKO-Fab (Fab fragment of the murine monoclonal HIT-like anti-PF4 antibody KKO) (Fab, V domains shown, From murine IgG2b kappa KKO) VH: VQLQQSGAELVKPGASVKLSCKASGYTFTNYFIYWVKQRPGQGLEWIGEINPRNGDTDFNEKFESRATLTVDKSSSTAYMQLSSLTSEDSAIYYCTRSPYGNNYGFTYWGQGTLVTVSA VL: DIQMIQSQKFMSTSVGDRVTVTCKASQNVGTNVAWYQQKPGQSPNALIYSASYRYSGVPDRFTGSGSGTDFTLTITNVQSEDLADYFCQQYNSYPLTFGTGTKLDLK",binding result,PF4 tetramer (human PF4),binds
"KKO (murine anti-human PF4 IgG2bκ monoclonal antibody) (antibody, V domains shown, Fab part as the heavy chain of m3 (PDB 4R97, PDB 4R9Y); as the light chain of m3 (PDB 4R97, PDB 4R9Y); IgG2b kappa, whole IgG; also called HIT antibody KKO; HIT-like antibody KKO; source: purified from conditioned PFHM-II media (protein A-agarose); copies: 2 + 2) VH: VQLQQSGAELVKPGASVKLSCKASGYTFTNYFIYWVKQRPGQGLEWIGEINPRNGDTDFNEKFESRATLTVDKSSSTAYMQLSSLTSEDSAIYYCTRSPYGNNYGFTYWGQGTLVTVSA VL: DIQMIQSQKFMSTSVGDRVTVTCKASQNVGTNVAWYQQKPGQSPNALIYSASYRYSGVPDRFTGSGSGTDFTLTITNVQSEDLADYFCQQYNSYPLTFGTGTKLDLK",binding result,[2],binds
